Results as given in paper PMC3433420.
pKd: −log10 of the molar value. “And” between values parts separate entries of the source, which are not always exact repeats. Equal entries are not always repeated. Where two headings read alike, the source gives them in different places.

Experiments:
[1] = target: ErbB3-pY1260 phosphopeptide, rhodamine-labelled (human); assay: fluorescence polarisation; saturation binding in solution; rhodamine-labeled peptide fixed at 10 nM, protein titrated 0.002-10 µM (twelve two-fold dilutions); 20 minutes at room temperature in the dark; assay buffer 20 mM HEPES, 100 mM KCl, 0.1% Tween-20, 5 mM DTT, pH 7.8; apparent KD; assay detection threshold of 20 µM
[2] = target: ErbB3-pY1197 phosphopeptide, rhodamine-labelled (human); assay: as above
[3] = target: CRKL (Homo sapiens) (UniProt P46109); conditions: cited from earlier work
Sequence of CRKL (Homo sapiens) (P46109 9-107): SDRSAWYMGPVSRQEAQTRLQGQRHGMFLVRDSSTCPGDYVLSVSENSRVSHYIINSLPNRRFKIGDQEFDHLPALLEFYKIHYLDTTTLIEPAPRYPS

[4] = target: GRB2 (Homo sapiens) (UniProt P62993); conditions: cited from earlier work
[5] = target: SYK-N (Homo sapiens) (UniProt P43405); conditions: cited from earlier work
[6] = target: RASA1-NC (Homo sapiens) (UniProt P20936); conditions: cited from earlier work
Sequence of RASA1-NC (Homo sapiens) (P20936 176-446): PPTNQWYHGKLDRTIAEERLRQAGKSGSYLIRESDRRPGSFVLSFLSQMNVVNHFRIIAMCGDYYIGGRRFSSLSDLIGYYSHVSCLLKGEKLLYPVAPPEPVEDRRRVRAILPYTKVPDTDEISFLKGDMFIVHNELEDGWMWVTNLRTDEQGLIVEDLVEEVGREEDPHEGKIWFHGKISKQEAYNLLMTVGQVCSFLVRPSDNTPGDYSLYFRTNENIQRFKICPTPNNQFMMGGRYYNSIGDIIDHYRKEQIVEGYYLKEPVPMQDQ

[7] = target: SHC1 (Homo sapiens) (UniProt P29353); conditions: cited from earlier work
Sequence of SHC1 (Homo sapiens) (P29353 483-583): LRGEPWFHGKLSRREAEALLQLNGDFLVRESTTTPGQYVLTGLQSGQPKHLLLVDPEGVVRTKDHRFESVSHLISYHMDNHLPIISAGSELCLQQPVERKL

[8] = target: SHC1-PTB (Homo sapiens) (UniProt P29353); conditions: cited from earlier work
Sequence of SHC1-PTB (Homo sapiens) (P29353 483-583): as above

[9] = target: TEC (Homo sapiens) (UniProt P42680); conditions: cited from earlier work
Sequence of TEC (Homo sapiens) (P42680 242-350): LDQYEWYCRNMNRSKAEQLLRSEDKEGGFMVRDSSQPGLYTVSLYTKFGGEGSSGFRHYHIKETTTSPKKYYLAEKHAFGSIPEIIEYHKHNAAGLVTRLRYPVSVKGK

[10] = target: PIK3R3-NC (Homo sapiens) (UniProt Q92569); conditions: cited from earlier work
[11] = target: SHC3 (Homo sapiens) (UniProt Q92529); conditions: cited from earlier work
Sequence of SHC3 (Homo sapiens) (Q92529 494-594): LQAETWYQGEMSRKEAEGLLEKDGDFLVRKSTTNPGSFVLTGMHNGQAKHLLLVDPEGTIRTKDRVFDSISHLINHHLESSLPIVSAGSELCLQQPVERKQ

[12] = target: LYN (Homo sapiens) (UniProt P07948); conditions: cited from earlier work
Sequence of LYN (Homo sapiens) (P07948 124-231): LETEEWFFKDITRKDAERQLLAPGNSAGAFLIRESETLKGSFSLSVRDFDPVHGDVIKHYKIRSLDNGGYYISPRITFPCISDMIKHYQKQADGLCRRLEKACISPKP

[13] = target: YES1 (Homo sapiens) (UniProt P07947); conditions: cited from earlier work
Sequence of YES1 (Homo sapiens) (P07947 153-260): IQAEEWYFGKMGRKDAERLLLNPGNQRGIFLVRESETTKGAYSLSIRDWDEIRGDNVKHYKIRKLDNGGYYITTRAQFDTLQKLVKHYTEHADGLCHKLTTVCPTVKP

[14] = target: GRB7 (Homo sapiens) (UniProt Q14451); conditions: cited from earlier work
Sequence of GRB7 (Homo sapiens) (Q14451 426-532): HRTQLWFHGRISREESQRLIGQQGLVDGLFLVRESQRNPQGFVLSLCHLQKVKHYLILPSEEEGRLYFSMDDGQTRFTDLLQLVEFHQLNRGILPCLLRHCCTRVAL

[15] = target: FGR (Homo sapiens) (UniProt P09769); conditions: cited from earlier work
[16] = target: PIK3R2-N (Homo sapiens) (UniProt O00459); conditions: cited from earlier work
[17] = target: ABL2 (Homo sapiens) (UniProt P42684); conditions: cited from earlier work
Sequence of ABL2 (Homo sapiens) (P42684 168-268): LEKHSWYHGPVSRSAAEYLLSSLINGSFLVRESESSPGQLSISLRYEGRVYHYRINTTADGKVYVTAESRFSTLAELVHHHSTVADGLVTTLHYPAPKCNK

[18] = target: BLK (Homo sapiens) (UniProt P51451); conditions: cited from earlier work
Sequence of BLK (Homo sapiens) (P51451 119-225): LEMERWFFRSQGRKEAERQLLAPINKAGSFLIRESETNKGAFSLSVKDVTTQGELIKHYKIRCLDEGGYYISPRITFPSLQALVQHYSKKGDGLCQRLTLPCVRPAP

[19] = target: ITK (Homo sapiens) (UniProt Q08881); conditions: cited from earlier work
Sequence of ITK (Homo sapiens) (Q08881 234-343): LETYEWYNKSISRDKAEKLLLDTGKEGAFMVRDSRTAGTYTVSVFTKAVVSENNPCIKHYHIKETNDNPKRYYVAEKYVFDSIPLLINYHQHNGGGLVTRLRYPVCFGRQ

[20] = target: PLCG2-NC (Homo sapiens) (UniProt P16885); conditions: cited from earlier work
[21] = target: CRK (Homo sapiens) (UniProt P46108); conditions: cited from earlier work
Sequence of CRK (Homo sapiens) (P46108 8-123): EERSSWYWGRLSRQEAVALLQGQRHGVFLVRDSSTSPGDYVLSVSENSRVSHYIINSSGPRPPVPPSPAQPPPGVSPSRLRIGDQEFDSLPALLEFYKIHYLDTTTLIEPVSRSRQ

[22] = target: PIK3R1-N (Homo sapiens) (UniProt P27986); conditions: cited from earlier work
Sequence of PIK3R1-N (Homo sapiens) (P27986 328-723): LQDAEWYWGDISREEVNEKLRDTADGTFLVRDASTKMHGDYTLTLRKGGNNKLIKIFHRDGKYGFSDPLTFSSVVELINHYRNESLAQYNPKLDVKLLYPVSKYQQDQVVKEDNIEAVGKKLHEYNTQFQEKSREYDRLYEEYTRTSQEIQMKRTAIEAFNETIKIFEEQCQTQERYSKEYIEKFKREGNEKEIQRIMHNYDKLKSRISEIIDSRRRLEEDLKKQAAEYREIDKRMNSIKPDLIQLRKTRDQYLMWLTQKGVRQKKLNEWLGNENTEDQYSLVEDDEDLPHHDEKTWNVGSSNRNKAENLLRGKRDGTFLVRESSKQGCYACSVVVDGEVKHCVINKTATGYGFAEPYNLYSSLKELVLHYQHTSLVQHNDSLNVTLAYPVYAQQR

[23] = target: SRC (Homo sapiens) (UniProt P12931); conditions: cited from earlier work
[24] = target: SYK-NC (Homo sapiens) (UniProt P43405); conditions: cited from earlier work
[25] = target: RASA1-N (Homo sapiens) (UniProt P20936); conditions: cited from earlier work
Sequence of RASA1-N (Homo sapiens) (P20936 176-446): as the sequence (P20936 176-446) above

[26] = target: PIK3R1-NC (Homo sapiens) (UniProt P27986); conditions: cited from earlier work
Sequence of PIK3R1-NC (Homo sapiens) (P27986 328-723): as the sequence (P27986 328-723) above

[27] = target: SHC1-PTB (Homo sapiens) (UniProt P29353); conditions: cited from earlier work; remark: listed apart in the source
[28] = target: PIK3R3-NC (Homo sapiens) (UniProt Q92569); conditions: cited from earlier work; remark: listed apart in the source
[29] = target: SRC SH2 domain (human) (UniProt P12931); assay: peptide or protein array; SH2/PTB proteins spotted on aldehyde slides, rhodamine peptide titrated in buffer B (20 mM HEPES, 100 mM KCl, 0.1% Tween-20, 5 mM DTT, pH 7.8), 1 h at room temperature; replicate assays
[30] = target: RASA1 tandem SH2 domains (human); assay: as above
[31] = target: ABL2 SH2 domain (human) (UniProt P42684); assay: as above
Sequence of ABL2 SH2 domain (human) (P42684 173-263): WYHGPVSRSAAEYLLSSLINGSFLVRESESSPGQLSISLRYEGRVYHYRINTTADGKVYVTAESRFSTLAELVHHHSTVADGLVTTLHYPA

[32] = target: SH2D3A SH2 domain (human) (UniProt Q9BRG2); assay: as above
Sequence of SH2D3A SH2 domain (human) (Q9BRG2 15-114): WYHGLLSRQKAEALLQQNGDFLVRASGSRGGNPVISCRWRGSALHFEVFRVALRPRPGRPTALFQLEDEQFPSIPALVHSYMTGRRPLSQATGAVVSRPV

[33] = target: RASA1 N-terminal SH2 domain (human) (UniProt P20936); assay: as above
[34] = target: HSH2D SH2 domain (human) (UniProt Q96JZ2); assay: as above
Sequence of HSH2D SH2 domain (human) (Q96JZ2 34-125): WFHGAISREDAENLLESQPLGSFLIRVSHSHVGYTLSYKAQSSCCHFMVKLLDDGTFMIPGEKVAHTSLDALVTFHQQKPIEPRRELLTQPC

[35] = target: PIK3R3 tandem SH2 domains (human); assay: as above
[36] = target: PLCG1 C-terminal SH2 domain (human); assay: as above
[37] = target: PIK3R2 tandem SH2 domains (human) (UniProt O00459); assay: as above
[38] = target: NCK2 SH2 domain (human) (UniProt O43639); assay: as above
Sequence of NCK2 SH2 domain (human) (O43639 285-380): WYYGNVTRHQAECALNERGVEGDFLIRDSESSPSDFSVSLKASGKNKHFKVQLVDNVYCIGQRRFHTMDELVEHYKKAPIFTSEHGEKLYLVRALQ

[39] = target: SHF SH2 domain (human) (UniProt Q7M4L6); assay: as above
[40] = target: PIK3R1 tandem SH2 domains (human) (UniProt P27986); assay: as above
Sequence of PIK3R1 tandem SH2 domains (human) (P27986 whole entry, the tested form may be a part): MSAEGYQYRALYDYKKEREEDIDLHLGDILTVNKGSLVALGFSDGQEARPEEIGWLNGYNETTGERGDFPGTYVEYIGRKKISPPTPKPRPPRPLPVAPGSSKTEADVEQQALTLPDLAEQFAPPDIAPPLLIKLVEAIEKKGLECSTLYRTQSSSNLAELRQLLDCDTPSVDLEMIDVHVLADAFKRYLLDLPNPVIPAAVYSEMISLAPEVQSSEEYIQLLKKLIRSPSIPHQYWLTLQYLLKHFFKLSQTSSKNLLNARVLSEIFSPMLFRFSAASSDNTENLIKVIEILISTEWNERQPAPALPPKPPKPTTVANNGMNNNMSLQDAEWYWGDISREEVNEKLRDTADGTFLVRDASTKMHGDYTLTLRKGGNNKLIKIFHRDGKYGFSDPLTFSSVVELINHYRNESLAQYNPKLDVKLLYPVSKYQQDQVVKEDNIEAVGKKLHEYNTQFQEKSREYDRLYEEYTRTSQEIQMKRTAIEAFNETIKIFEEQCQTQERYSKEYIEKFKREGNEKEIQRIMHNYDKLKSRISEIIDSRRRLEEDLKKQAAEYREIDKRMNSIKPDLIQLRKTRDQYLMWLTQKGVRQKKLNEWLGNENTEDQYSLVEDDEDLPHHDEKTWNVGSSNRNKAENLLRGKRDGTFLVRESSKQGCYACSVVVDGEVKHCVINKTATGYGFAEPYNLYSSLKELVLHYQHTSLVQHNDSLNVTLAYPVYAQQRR

[41] = target: PLCG2 tandem SH2 domains (human); assay: as above
[42] = target: SH2D1A SH2 domain (human) (UniProt O60880); assay: as above
Sequence of SH2D1A SH2 domain (human) (O60880 6-104): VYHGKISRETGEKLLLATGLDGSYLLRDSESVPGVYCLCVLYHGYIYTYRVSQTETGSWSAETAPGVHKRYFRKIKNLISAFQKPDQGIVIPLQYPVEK

[43] = target: ITK SH2 domain (human) (UniProt Q08881); assay: as above
Sequence of ITK SH2 domain (human) (Q08881 239-338): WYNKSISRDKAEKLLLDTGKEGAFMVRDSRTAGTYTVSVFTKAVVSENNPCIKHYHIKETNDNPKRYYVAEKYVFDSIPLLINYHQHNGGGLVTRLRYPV

[44] = target: VAV2 SH2 domain (human) (UniProt P52735); assay: as above
Sequence of VAV2 SH2 domain (human) (P52735 673-767): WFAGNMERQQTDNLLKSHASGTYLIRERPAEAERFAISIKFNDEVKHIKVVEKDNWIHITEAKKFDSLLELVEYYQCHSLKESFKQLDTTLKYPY

Sequence of GRB7 SH2 domain (Q14451 431-527): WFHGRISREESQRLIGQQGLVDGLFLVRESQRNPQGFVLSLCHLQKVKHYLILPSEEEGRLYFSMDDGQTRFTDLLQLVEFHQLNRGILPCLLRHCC

Substance: GRB7 SH2 domain (from UniProt Q14451 431-527) (domain or fragment)
- pKd [1]: > 7.00
- pKd [2]: > 7.00

Substance: …pYLRVAPQSd
- apparent Kd (screen) [3]: 1340 nM
- apparent Kd (screen) [4]: 415 nM
- apparent Kd (screen) [5]: 294 nM
- apparent Kd (screen) [6]: 500 nM
- apparent Kd (screen) [7]: 777 nM
- apparent Kd (screen) [8]: 317 nM
- apparent Kd (screen) [9]: 480 nM
- apparent Kd (screen) [10]: 805 nM
- apparent Kd (screen) [11]: 1030 nM
- apparent Kd (screen) [12]: 171 nM
- apparent Kd (screen) [13]: 127 nM
- apparent Kd (screen) [14]: 500 nM
- apparent Kd (screen) [15]: 618 nM
- apparent Kd (screen) [16]: 500 nM
- apparent Kd (screen) [17]: 214 nM
- apparent Kd (screen) [18]: 500 nM
- apparent Kd (screen) [19]: 500 nM
- apparent Kd (screen) [20]: 500 nM
- apparent Kd (screen) [21]: 1070 nM
- apparent Kd (screen) [22]: 500 nM
- apparent Kd (screen) [23]: 381 nM
- apparent Kd (screen) [24]: 380 nM
- apparent Kd (screen) [25]: 708 nM
- apparent Kd (screen) [26]: 500 nM
- apparent Kd (screen) [27]: 337 nM
- apparent Kd (screen) [28]: 1110 nM

Substance: ErbB4 pY1202 phosphopeptide (18-mer), rhodamine-labelled, for protein microarrays
- pKd [29]: 6.40
- pKd [30]: 5.07
- pKd [31]: 6.00 and 6.02
- pKd [32]: 6.00
- pKd [33]: 6.18
- pKd [34]: 6.01
- pKd [35]: 5.76 and 5.93
- pKd [36]: 5.90
- pKd [37]: 6.19
- pKd [38]: 5.00
- pKd [39]: 4.92
- pKd [40]: 6.78 and 6.26
- pKd [41]: 6.39 and 6.22 and 5.82
- pKd [42]: 4.51
- pKd [43]: 6.14
- pKd [44]: 5.02
